Laboratory results from article doi:10.1101/2023.10.27.564484, “Insights into Molecular Diversity within the FET Family: Unraveling Phase Separation of the N-Terminal Low Complexity Domain from RNA-Binding Protein EWS” (bioRxiv, 2023).
Numbering of substitutions follows the chain as printed. Names and notes keep the numbering of the source. Blank lines part the entries; values can stand above or below the molecule they belong to.

Assays:
EWS^LCD,7YS = EWS^LCD,7YS (UniProt Q01844); test: pelleting assay (phase separation); conditions: 50 µM protein, 150 mM NaCl, 20 mM Tris pH 7.4; parent: est. 0.36; read off a plot
EWS^LCD,13YS = EWS^LCD,13YS (UniProt Q01844); test: pelleting assay (phase separation); conditions: 50 µM protein, 150 mM NaCl, 20 mM Tris pH 7.4; parent: est. 0.36; read off a plot
[1] = biological target: the molecule itself; test: turbidity (phase separation) with brightfield imaging; stock diluted into 20 mM Tris buffer with varied protein, NaCl, pH or temperature in microwell plates; absorbance and brightfield images of droplets
[2] = biological target: the molecule itself; test: co-sedimentation; pelleting of condensates: stock in CAPS pH 11 diluted into 20 mM Tris pH 7.4-7.5, 150 mM NaCl, 18,000 g for 15 min at room temperature, A280 of the supernatant; protein 25-400 µM, mutants at 50 µM

- other: fraction soluble (EWS^LCD,7YS): 0.92
Molecule: EWS low-complexity domain (N-terminal 264 residues of RNA-binding protein EWS) (from UniProt Q01844) 7YS

- other: fraction soluble (EWS^LCD,13YS): 1
Molecule: EWS low-complexity domain (N-terminal 264 residues of RNA-binding protein EWS) (from UniProt Q01844) 13YS

B1: EWS low-complexity domain (N-terminal 264 residues of RNA-binding protein EWS) (domain or fragment)
chain: GAMASTDYSTYSQAAAQQGYSAYTAQPTQGYAQTTQAYGQQSYGTYGQPTDVSYTQAQTTATYGQTAYATSYGQPPTGYTTPTAPQAYSQPVQGYGTGAYDTTTATVTTTQASYAAQSAYGTQPAYPAYGQQPAATAPTRPQDGNKPTETSQPQSSTGGYNQPSLGYGQSNYSYPQVPGSYPMQPVTAPPSYPPTSYSSTQPTSYDQSSYSQQNTYGQPSSYGQQSSYGQQSSYGQQPPTSYPPQTGSYSQAPSQYSQQSSSYGQQ
notes: two residue (Gly, Ala) cloning scar left after TEV cleavage; not included in the numbering; 15N-enriched in the intermolecular PRE experiment; unlabelled in turbidity and pelleting assays; also called EWS^LCD; EWS LCD; source: E. coli BL21 DE3 Star, purified (IMAC in urea, TEV cleavage, second IMAC, SEC); not shown: His8, N-terminal, cleaved
- binding result [1]: binds

B2: EWS^LCD Y44S (domain or fragment)
chain: B1 chain with Y46S
notes: two residue (Gly, Ala) cloning scar left after TEV cleavage; not included in the numbering; source: E. coli BL21 DE3 Star, purified (IMAC, TEV cleavage, SEC); not shown: His8, N-terminal, cleaved
- binding result [2]: binds

B3: EWS^LCD,Y170S/Y172S (domain or fragment)
chain: B1 chain with Y172S, Y174S
notes: two residue (Gly, Ala) cloning scar left after TEV cleavage; not included in the numbering; also called Y170/Y172S; source: E. coli BL21 DE3 Star, purified (IMAC, TEV cleavage, SEC); not shown: His8, N-terminal, cleaved
- binding result [1]: binds

B4: EWS^LCD Y208S (domain or fragment)
chain: B1 chain with Y210S
notes: as for B2
- binding result [2]: binds

B5: EWS^LCD Y172S (domain or fragment)
chain: B1 chain with Y174S
notes: as for B2
- binding result [2]: binds
